Experimental findings from US20130129746A1 (GlaxoSmithKline, published 2013) are described below.

To fix the notation:
B4: Rat Serum Albumin (other, UniProt P02770 25-608, looked up)
chain: EAHKSEIAHRFKDLGEQHFKGLVLIAFSQYLQKCPYEEHIKLVQEVTDFAKTCVADENAENCDKSIHTLFGDKLCAIPKLRDNYGELADCCAKQEPERNECFLQHKDDNPNLPPFQRPEAEAMCTSFQENPTSFLGHYLHEVARRHPYFYAPELLYYAEKYNEVLTQCCTESDKAACLTPKLDAVKEKALVAAVRQRMKCSSMQRFGERAFKAWAVARMSQRFPNAEFAEITKLATDVTKINKECCHGDLLECADDRAELAKYMCENQATISSKLQACCDKPVLQKSQCLAEIEHDNIPADLPSIAADFVEDKEVCKNYAEAKDVFLGTFLYEYSRRHPDYSVSLLLRLAKKYEATLEKCCAEGDPPACYGTVLAEFQPLVEEPKNLVKTNCELYEKLGEYGFQNAVLVRYTQKAPQVSTPTLVEAARNLGRVGTKCCTLPEAQRLPCVEDYLSAILNRLCVLHEKTPVSEKVTKCCSGSLVERRPCFSALTVDETYVPKEFKAETFTFHSDICTLPDKEKQIKKQTALAELVKHKPKATEDQLKTVMGDFAQFVDKCCKAADKDNCFATEGPNLVARSKEALA
notes: mature; purified protein on CM5 chips for BIAcore; also called RSA; rat SA

Bounds are passed on as bounds.

For assay [1], the target named is T1, Cynomolgus monkey Serum Albumin (Cynomolgus monkey, UniProt A2V9Z4 25-608).
T1 construct: mature; purified protein on CM5 chips for BIAcore; also called CSA; cyno SA
T1 sequence (A2V9Z4 25-608): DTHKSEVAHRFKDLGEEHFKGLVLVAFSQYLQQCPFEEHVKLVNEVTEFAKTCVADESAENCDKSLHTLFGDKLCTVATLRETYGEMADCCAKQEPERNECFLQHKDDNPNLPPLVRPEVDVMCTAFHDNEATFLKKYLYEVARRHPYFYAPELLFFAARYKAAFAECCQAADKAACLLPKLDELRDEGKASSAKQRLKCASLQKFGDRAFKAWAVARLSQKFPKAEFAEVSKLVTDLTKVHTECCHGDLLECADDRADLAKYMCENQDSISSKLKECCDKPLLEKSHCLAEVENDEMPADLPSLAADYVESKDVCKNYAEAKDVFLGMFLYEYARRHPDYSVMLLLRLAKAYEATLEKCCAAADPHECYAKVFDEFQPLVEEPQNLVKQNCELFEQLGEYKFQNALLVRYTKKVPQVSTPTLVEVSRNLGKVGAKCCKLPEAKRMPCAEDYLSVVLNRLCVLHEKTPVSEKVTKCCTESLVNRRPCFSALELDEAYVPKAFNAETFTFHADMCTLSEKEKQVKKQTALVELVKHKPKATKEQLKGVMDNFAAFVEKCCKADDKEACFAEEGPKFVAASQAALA
The assay is described as follows: BIAcore SPR. (In general: Surface plasmon resonance follows binding to a sensor surface in real time, without labels.)
Procedure: (§1) Binding to HSA, CSA, MSA and RSA by BIAcore was confirmed using purified protein at 3 concentrations 1 μM, 500 nM and 50 nM.

Assay [2] addresses B4. The assay is described as follows: BIAcore SPR.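 Note: purified dAbs run at 1 µM, 500 nM and 50 nM over human, cynomolgus, mouse and rat serum albumin in BIAcore binding measurements.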
Procedure: as §1
For assay [3], the target named is T2, Human Serum Albumin (human, UniProt P02768 25-609).
T2 construct: mature; purified protein on CM5 chips for BIAcore; also called HSA; human SA
The assay is described as follows: BIAcore SPR.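 Note: purified dAbs run at 1 µM, 500 nM and 50 nM over human, cynomolgus, mouse and rat serum albumin in BIAcore binding measurements.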
Procedure: as §1

In assay [4] the target is T3, mouse serum albumin (mouse, UniProt P07724 25-608).
T3 construct: mature; purified protein on CM5 chips for BIAcore; also called MSA; mouse SA
T3 sequence (P07724 25-608): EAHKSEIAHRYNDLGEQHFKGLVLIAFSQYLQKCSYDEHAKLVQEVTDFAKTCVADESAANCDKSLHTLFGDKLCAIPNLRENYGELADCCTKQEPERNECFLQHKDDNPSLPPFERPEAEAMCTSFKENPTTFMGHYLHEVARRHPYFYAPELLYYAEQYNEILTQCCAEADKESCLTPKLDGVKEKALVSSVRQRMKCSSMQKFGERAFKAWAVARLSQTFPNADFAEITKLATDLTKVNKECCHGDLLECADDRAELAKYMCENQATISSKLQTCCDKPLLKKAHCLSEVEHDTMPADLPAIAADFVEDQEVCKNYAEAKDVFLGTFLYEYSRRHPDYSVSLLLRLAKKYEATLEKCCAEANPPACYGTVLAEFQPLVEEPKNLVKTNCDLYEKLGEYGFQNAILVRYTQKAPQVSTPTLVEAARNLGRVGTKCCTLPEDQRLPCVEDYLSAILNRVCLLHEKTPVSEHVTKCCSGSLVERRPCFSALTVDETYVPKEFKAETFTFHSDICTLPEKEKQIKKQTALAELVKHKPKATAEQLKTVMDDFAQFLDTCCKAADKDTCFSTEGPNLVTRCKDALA
Kind of assay: BIAcore SPR.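 Note: purified dAbs run at 1 µM, 500 nM and 50 nM over human, cynomolgus, mouse and rat serum albumin in BIAcore binding measurements.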
Procedure: as §1

For assay [5], the target named is T1, Cynomolgus monkey Serum Albumin. The assay is described as follows: Albumin KD column of the PK table (repeats Table 6; row marked historical data).
For assay [6], the target named is B4. Kind of assay: Albumin KD column of the PK table (repeats Table 6; row marked historical data); Albumin KD column of PK Table 10; historical data.
Assay [7] has as its target T1, Cynomolgus monkey Serum Albumin. Kind of assay: Albumin KD column of the PK table (row marked historical data; differs from Table 6); historical data (*), not the Table 6 run.
For assay [8], the target named is B4. Kind of assay: Albumin KD column of the PK table (repeats Table 6).
Assay [9] has as its target T3, mouse serum albumin. The assay is described as above.
Assay [10] has as its target T1, Cynomolgus monkey Serum Albumin. The assay is described as follows: BIAcore SPR, second independent experiment.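 Note: purified domain antibodies run as analytes at 50 nM, 500 nM and 1 µM over HSA, CSA, MSA and RSA.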
Procedure: as §1
In assay [11] the target is B4. The assay is described as follows: BIAcore SPR, second independent experiment.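 Note: purified domain antibodies run as analytes at 50 nM, 500 nM and 1 µM over HSA, CSA, MSA and RSA.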
Procedure: as §1
In assay [12] the target is T2, Human Serum Albumin. Kind of assay: BIAcore SPR, second independent experiment.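 Note: purified domain antibodies run as analytes at 50 nM, 500 nM and 1 µM over HSA, CSA, MSA and RSA.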
Procedure: as §1
The target of assay [13] is T3, mouse serum albumin. The assay is described as follows: BIAcore SPR, second independent experiment.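 Note: purified domain antibodies run as analytes at 50 nM, 500 nM and 1 µM over HSA, CSA, MSA and RSA.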
Procedure: as §1
Assay [14] concerns the target B4. The assay is described as follows: BIAcore SPR, second independent experiment; second, independent SPR experiment (bracketed values).
Procedure: as §1
In assay [15] the target is T4, DOM7h-11-12/Exendin-4 fusion DMS number 7147.
T4 construct: exendin-4, (G4S)3 linker, AlbudAb; also called DMS7147
Kind of assay: BIAcore SPR (Albumin KD column).

The target of assay [16] is T5, DOM7h-14-18/Exendin-4 fusion DMS number 7140.
T5 construct: exendin-4, (G4S)3 linker, AlbudAb; also called DMS7140
The assay is described as follows: BIAcore SPR (Albumin KD column).

Assay [17] addresses T6, DOM7h-14-19/Exendin-4 fusion DMS number 7141.
T6 construct: exendin-4, (G4S)3 linker, AlbudAb; also called DMS7141
Kind of assay: BIAcore SPR (Albumin KD column).

Assay [18] concerns the target T7, DOM7h-14/Exendin-4 fusion DMS number 7138.
T7 construct: exendin-4, (G4S)3 linker, AlbudAb; also called DMS7138
The assay is described as follows: BIAcore SPR (Albumin KD column).

The target of assay [19] is T8, DOM7h-11/Exendin-4 fusion DMS number 7142.
T8 construct: exendin-4, (G4S)3 linker, AlbudAb; also called DMS7142
The assay is described as follows: BIAcore SPR (Albumin KD column).

For assay [20], the target named is T9, DOM7h-11-15/Exendin-4 fusion DMS number 7143.
T9 construct: exendin-4, (G4S)3 linker, AlbudAb; also called DMS7143
Kind of assay: BIAcore SPR (Albumin KD column).

Assay [21] addresses T10, DOM7h-14-10/Exendin-4 fusion DMS number 7139.
T10 construct: exendin-4, (G4S)3 linker, AlbudAb; also called DMS7139
The assay is described as follows: BIAcore SPR (Albumin KD column).

B1: DOM7h-14 (other)
VL: DIQMTQSPSSLSASVGDRVTITCRASQWIGSQLSWYQQKPGKAPKLLIMWRSSLQSGVPSRFSGSGSGTDFTLTISSLQPEDFATYYCAQGAALPRTFGQGTKVEIKR
notes: Vk dAb (AlbudAb)
Broadly, the Kd is the free concentration of one partner at which half of the binding sites on the other are occupied at equilibrium, for simple one-to-one binding. The koff is the rate constant with which the complex falls apart. As usually defined, the kon is a measure of how fast the partners come together. Take B1: the Kd in [1] is 66 nM; with Rat Serum Albumin [2], 60 nM; in the assay with Human Serum Albumin [3], 33 nM; with mouse serum albumin [4], 12 nM; in assay [5] it was 66 nM; with Rat Serum Albumin [6], 60 nM. The koff in [1] worked out at 0.0965 s⁻¹; with Rat Serum Albumin [2] it was 0.209 s⁻¹; with Human Serum Albumin [3], 0.0417 s⁻¹; with mouse serum albumin [4], 0.0482 s⁻¹. The on-rate (kon) in assay [1] came out at 1.5e+06 M⁻¹ s⁻¹; with Rat Serum Albumin [2], 4e+06 M⁻¹ s⁻¹; in the assay with Human Serum Albumin [3], 1.43e+06 M⁻¹ s⁻¹; with mouse serum albumin [4], 4.1e+06 M⁻¹ s⁻¹.

B2: DOM7h-11 (other)
VL: DIQMTQSPSSLSASVGDRVTITCRASRPIGTTLSWYQQKPGKAPKLLIWFGSRLQSGVPSRFSGSGSGTDFTLTISSLQPEDFATYYCAQAGTHPTTFGQGTKVEIKR
Take B2: the dissociation constant Kd is 3300 nM in [7]; 1000 nM in assay [1]; 2100 nM with Rat Serum Albumin [2]; 5000 nM in the assay with mouse serum albumin [4]; 2100 nM with Rat Serum Albumin [8]; 5000 nM with mouse serum albumin [9]. The figures for the koff (in assay [1]; in the assay with Rat Serum Albumin [2]; with mouse serum albumin [4]) were 0.682 s⁻¹, 0.1 s⁻¹ and 0.9 s⁻¹, respectively. Moreover, the values for the kon (in assay [1]; in the assay with Rat Serum Albumin [2]) were 800000 M⁻¹ s⁻¹ and 48000 M⁻¹ s⁻¹, respectively.

B3: DOM7h-11-3 (other)
VL: DIQMTQSPSSLSASVGDRVTITCRASRPIGTTLSWYQQKPGKAPKLLILWNSRLQSGVPSRFSGSGSGTDFTLTISSLQPEDFATYYCAQAGTHPTTFGQGTKVEIKR
In the case of B3, the Kd was 200 nM in [10]; 88000 nM with Rat Serum Albumin [11]; 130 nM in the assay with Human Serum Albumin [12]; 36000 nM with mouse serum albumin [13]; 670 nM in [1]; 10000 nM with Rat Serum Albumin [2]. Also, the dissociation constant (Kd) with Human Serum Albumin [3] was 32 nM; in the assay with mouse serum albumin [4] it was not below 10000 nM. The koff in [10] worked out at 0.15 s⁻¹; in the assay with Human Serum Albumin [12], 0.0235 s⁻¹; with mouse serum albumin [13], 0.612 s⁻¹; in assay [1], 0.096 s⁻¹; with Human Serum Albumin [3] it was 0.016 s⁻¹; in the assay with Rat Serum Albumin [14], 0.718 s⁻¹. The kon in assay [10] stood at 726000 M⁻¹ s⁻¹; with Rat Serum Albumin [11], 8110 M⁻¹ s⁻¹; with Human Serum Albumin [12], 186000 M⁻¹ s⁻¹; in the assay with mouse serum albumin [13], 16700 M⁻¹ s⁻¹; in assay [1] it was 290000 M⁻¹ s⁻¹; with Human Serum Albumin [3] it was 650000 M⁻¹ s⁻¹.

As for B4, the equilibrium dissociation constant (Kd) turned out to be 1400 nM in assay [15]; 16000 nM in assay [16]; 17000 nM in assay [17]; 2400 nM in assay [18]; 24000 nM in [19]; 130 nM in assay [20]. This molecule also yielded a dissociation constant (Kd) in assay [21] of 19 nM.
